Changes are numbered by the printed parent chain. Names and notes keep the numbering of the source.
B1: AafA, major subunit of AAF/II, on wild type EAEC 042 Q43A (protein)
chain: VAKTATSTITVVNFCDITITPATNRDVNVDRSANIDLSFTIRAPQRCADAGMRIKAWGEANHGQLLIKPQGGNKSAGFTLASPRFSYIPNNPANIMNGFVLTNPGVYQLGMQGSITPAIPLRPGLYEVVLNAELVTN
B2: AafA, major subunit of AAF/II, on wild type EAEC 042 T18I (protein)
chain: B1 chain with T18I, A43Q

Biological target: fibronectin, P02751
Assay: bacterial adherence to fibronectin-coated 96-well plates (colony counting)
Conditions: chain shown with the change; plates coated with 25 µg/ml of fibronectin; in the presence of arabinose; parent: 100; read off a plot

Sequence of fibronectin, P02751 (P02751 32-2477): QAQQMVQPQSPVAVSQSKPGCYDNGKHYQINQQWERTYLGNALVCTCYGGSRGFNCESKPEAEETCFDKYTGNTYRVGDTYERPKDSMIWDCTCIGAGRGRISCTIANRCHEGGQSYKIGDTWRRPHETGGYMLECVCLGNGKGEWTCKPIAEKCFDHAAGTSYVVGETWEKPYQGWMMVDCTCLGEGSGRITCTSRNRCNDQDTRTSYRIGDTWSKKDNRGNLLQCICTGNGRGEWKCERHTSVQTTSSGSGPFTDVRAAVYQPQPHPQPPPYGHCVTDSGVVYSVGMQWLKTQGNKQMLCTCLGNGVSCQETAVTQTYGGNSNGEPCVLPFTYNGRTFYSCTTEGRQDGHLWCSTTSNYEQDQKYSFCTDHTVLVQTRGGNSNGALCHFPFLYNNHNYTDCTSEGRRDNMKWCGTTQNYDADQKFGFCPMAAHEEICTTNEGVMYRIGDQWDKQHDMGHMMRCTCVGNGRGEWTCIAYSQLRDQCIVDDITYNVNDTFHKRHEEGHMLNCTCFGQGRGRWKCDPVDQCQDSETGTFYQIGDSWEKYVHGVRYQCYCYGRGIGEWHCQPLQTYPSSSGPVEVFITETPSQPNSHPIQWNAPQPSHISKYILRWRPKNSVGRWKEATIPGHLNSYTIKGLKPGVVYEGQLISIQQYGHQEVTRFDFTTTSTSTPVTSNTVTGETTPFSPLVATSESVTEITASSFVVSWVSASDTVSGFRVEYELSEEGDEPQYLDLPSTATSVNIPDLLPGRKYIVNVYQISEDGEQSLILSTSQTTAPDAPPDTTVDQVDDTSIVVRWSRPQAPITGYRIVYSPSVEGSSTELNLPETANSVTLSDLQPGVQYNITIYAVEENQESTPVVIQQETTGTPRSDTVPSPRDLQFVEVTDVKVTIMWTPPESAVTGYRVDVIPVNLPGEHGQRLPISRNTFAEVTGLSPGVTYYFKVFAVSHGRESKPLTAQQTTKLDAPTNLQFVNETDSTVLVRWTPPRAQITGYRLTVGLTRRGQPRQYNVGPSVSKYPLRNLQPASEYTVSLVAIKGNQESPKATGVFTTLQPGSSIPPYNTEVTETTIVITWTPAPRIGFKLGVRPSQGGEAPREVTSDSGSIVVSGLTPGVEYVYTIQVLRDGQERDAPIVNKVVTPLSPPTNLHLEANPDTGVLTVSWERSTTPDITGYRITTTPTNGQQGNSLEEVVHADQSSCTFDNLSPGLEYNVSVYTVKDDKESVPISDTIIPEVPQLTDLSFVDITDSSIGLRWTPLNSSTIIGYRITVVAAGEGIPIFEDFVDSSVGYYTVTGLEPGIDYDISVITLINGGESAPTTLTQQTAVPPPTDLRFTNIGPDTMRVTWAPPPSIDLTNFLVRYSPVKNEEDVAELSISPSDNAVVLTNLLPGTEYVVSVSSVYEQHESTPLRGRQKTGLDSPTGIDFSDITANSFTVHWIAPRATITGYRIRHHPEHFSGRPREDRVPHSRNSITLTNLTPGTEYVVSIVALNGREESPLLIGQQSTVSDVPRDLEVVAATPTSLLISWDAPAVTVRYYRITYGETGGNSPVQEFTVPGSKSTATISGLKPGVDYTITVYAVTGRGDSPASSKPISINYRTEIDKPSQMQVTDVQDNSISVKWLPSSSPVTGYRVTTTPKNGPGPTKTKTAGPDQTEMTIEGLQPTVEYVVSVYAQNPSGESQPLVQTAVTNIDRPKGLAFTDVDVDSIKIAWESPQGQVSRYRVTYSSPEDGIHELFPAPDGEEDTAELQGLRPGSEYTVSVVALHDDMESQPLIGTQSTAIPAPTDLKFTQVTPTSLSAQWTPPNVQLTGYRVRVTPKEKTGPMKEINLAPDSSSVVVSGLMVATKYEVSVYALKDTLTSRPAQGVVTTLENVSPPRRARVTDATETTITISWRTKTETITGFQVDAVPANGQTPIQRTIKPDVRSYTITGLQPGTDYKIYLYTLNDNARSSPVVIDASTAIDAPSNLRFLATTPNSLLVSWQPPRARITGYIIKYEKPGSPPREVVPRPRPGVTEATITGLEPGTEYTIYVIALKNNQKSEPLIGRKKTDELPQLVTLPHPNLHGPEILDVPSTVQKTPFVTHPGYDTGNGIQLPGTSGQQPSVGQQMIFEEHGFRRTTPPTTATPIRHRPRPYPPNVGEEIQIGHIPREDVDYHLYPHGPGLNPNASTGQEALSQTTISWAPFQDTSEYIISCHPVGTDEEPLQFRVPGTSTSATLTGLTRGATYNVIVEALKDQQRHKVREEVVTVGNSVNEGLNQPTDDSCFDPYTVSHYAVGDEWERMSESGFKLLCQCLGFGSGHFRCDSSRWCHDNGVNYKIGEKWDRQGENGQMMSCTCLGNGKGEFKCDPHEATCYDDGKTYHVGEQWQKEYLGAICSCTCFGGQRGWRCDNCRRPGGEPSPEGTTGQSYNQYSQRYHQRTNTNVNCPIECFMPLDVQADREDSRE

Binder	percent of parent (% of binding to Fn)
B1	110
B2	65

Source: publication PMC4169507
